# Measured values reported in article PMC9482650, “Quantitative fragmentomics allow affinity mapping of interactomes” (Nature Communications, 2022).
# Where a chain is given by its changes, count along the chain named.
# T1: DLG3_1, Q92796
# T1 sequence (Q92796 125-227, limits assumed, looked up): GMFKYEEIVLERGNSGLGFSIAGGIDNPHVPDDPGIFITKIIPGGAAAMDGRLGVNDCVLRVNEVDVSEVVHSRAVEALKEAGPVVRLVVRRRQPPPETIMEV
# T2: DLG3_3, Q92796
# T2 sequence (Q92796 374-475, limits assumed, looked up): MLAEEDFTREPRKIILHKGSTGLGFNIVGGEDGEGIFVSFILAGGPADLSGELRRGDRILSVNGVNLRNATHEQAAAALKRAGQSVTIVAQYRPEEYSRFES
# T3: DVL3, Q92997
# T3 sequence (Q92997 244-331, limits assumed, looked up): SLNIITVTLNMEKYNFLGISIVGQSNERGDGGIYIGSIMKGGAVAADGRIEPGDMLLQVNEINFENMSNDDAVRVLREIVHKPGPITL
# T4: LIN7A, O14910
# T4 sequence (O14910 103-200, limits assumed, looked up): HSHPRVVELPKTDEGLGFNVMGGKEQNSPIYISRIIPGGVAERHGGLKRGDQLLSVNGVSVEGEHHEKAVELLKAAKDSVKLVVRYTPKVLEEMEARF
# T5: LIN7B, Q9HAP6
# T5 sequence (Q9HAP6 88-185, limits assumed, looked up): T4 sequence (O14910 103-200, limits assumed, looked up) with S2A, V20I, I35V, E42D, H65Q, K77Q, D78G, K89R
# T6: MPDZ_12, O75970
# T6 sequence (O75970 1857-1958, limits assumed, looked up): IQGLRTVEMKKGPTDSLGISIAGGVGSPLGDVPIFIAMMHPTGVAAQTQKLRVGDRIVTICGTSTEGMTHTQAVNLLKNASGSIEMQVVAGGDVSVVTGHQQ
# T7: PCLO, Q9Y6V0
# T7 sequence (Q9Y6V0 4491-4600, limits assumed, looked up): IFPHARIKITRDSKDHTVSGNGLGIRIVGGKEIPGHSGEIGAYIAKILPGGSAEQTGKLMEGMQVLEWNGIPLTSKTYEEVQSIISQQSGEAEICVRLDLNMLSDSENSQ
# T8: PTPN13_1, Q12923
# T8 sequence (Q12923 1088-1188, limits assumed, looked up): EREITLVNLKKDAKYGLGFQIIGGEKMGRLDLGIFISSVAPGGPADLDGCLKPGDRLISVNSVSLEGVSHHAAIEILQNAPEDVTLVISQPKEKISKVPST
# T9: SHANK1, Q9Y566
# T9 sequence (Q9Y566 658-767, limits assumed, looked up): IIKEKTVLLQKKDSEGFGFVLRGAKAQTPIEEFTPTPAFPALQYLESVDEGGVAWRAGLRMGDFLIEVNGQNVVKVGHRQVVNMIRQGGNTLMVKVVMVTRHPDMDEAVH
# T10: TX1BP3, O14907
# T10 sequence (O14907 10-122, limits assumed, looked up): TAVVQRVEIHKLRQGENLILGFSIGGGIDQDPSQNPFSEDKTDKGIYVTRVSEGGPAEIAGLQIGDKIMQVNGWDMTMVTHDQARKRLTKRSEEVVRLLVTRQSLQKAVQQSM
# Molecular target: ARHGEF12, Q9NZN5-2
# Sequence (Q9NZN5 other isoform, or with tags, fused parts or gaps): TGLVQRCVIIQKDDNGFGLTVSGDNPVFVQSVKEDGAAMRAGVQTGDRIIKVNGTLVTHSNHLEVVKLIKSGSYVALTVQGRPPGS
# Assay: holdup assay
# Parameters: key: below the threshold = too weak to quantify, mostly under pKd 3.1 to 4
# Details: plain residues with an end cap or a label only (N-terminal biotin on a linker: ado-ado)
row,Binder,pKd
1,"GSQSQVETEA [FKBP4, Q02790]",below the threshold
2,"SRPHTNETSL [MCC, P23508]",4.68

# Molecular target: DLG1_2, Q12959
# Sequence (Q12959 314-412): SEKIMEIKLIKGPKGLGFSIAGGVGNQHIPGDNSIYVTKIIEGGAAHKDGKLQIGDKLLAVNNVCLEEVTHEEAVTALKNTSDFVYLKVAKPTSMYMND
# Assay: holdup assay
# Parameters: key: below the threshold = too weak to quantify, mostly under pKd 3.1 to 4
# Details: plain residues with an end cap or a label only (N-terminal biotin on a linker: ado-ado)
row,Binder,pKd
1,"GSQSQVETEA [FKBP4, Q02790]",below the threshold
2,"SRPHTNETSL [MCC, P23508]",4.19

# Molecular target: T1, DLG3_1, Q92796
# Assay: holdup assay
# Parameters: key: below the threshold = too weak to quantify, mostly under pKd 3.1 to 4
# Details: plain residues with an end cap or a label only (N-terminal biotin on a linker: ado-ado)
row,Binder,pKd
1,"GSQSQVETEA [FKBP4, Q02790]",below the threshold
2,"SRPHTNETSL [MCC, P23508]",below the threshold

# Molecular target: T2, DLG3_3, Q92796
# Assay: holdup assay
# Parameters: key: below the threshold = too weak to quantify, mostly under pKd 3.1 to 4
# Details: plain residues with an end cap or a label only (N-terminal biotin on a linker: ado-ado)
row,Binder,pKd
1,"GSQSQVETEA [FKBP4, Q02790]",below the threshold
2,"SRPHTNETSL [MCC, P23508]",3.95

# Molecular target: DLG5_1, Q8TDM6
# Sequence (Q8TDM6 617-713): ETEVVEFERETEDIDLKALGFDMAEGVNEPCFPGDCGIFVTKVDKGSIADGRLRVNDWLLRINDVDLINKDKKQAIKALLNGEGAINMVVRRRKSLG
# Assay: holdup assay
# Parameters: key: below the threshold = too weak to quantify, mostly under pKd 3.1 to 4
# Details: plain residues with an end cap or a label only (N-terminal biotin on a linker: ado-ado)
row,Binder,pKd
1,"GSQSQVETEA [FKBP4, Q02790]",below the threshold
2,"SRPHTNETSL [MCC, P23508]",below the threshold

# Molecular target: T3, DVL3, Q92997
# Assay: holdup assay
# Parameters: key: below the threshold = too weak to quantify, mostly under pKd 3.1 to 4
# Details: plain residues with an end cap or a label only (N-terminal biotin on a linker: ado-ado)
row,Binder,pKd
1,"GSQSQVETEA [FKBP4, Q02790]",below the threshold
2,"SRPHTNETSL [MCC, P23508]",below the threshold

# Molecular target: FRMPD2_1, Q68DX3
# Sequence (Q68DX3 770-861): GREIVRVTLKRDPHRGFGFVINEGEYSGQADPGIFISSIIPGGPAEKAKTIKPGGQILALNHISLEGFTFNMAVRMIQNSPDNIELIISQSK
# Assay: holdup assay
# Parameters: key: below the threshold = too weak to quantify, mostly under pKd 3.1 to 4
# Details: plain residues with an end cap or a label only (N-terminal biotin on a linker: ado-ado)
row,Binder,pKd
1,"GSQSQVETEA [FKBP4, Q02790]",3.53
2,"SRPHTNETSL [MCC, P23508]",below the threshold

# Molecular target: GOPC, Q9HD26
# Assay: holdup assay
# Parameters: key: below the threshold = too weak to quantify, mostly under pKd 3.1 to 4
# Details: plain residues with an end cap or a label only (N-terminal biotin on a linker: ado-ado)
row,Binder,pKd
1,"GSQSQVETEA [FKBP4, Q02790]",below the threshold
2,"SRPHTNETSL [MCC, P23508]",3.9

# Molecular target: GORASP2, Q9H8Y8
# Assay: holdup assay
# Parameters: key: below the threshold = too weak to quantify, mostly under pKd 3.1 to 4
# Details: plain residues with an end cap or a label only (N-terminal biotin on a linker: ado-ado)
row,Binder,pKd
1,"GSQSQVETEA [FKBP4, Q02790]",below the threshold
2,"SRPHTNETSL [MCC, P23508]",below the threshold

# Molecular target: GRASP, Q7Z6J2
# Sequence (Q7Z6J2 96-193): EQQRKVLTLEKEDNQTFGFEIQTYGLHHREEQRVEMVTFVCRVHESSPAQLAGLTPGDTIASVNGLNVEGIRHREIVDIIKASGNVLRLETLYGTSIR
# Assay: holdup assay
# Parameters: key: below the threshold = too weak to quantify, mostly under pKd 3.1 to 4
# Details: plain residues with an end cap or a label only (N-terminal biotin on a linker: ado-ado)
row,Binder,pKd
1,"GSQSQVETEA [FKBP4, Q02790]",3.59
2,"SRPHTNETSL [MCC, P23508]",3.96

# Molecular target: GRID2IP_1, A4D2P6
# Sequence (A4D2P6 1-87): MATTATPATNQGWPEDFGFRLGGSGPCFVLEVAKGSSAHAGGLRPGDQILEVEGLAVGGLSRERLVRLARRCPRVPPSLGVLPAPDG
# Assay: holdup assay
# Parameters: key: below the threshold = too weak to quantify, mostly under pKd 3.1 to 4
# Details: plain residues with an end cap or a label only (N-terminal biotin on a linker: ado-ado)
row,Binder,pKd
1,"GSQSQVETEA [FKBP4, Q02790]",below the threshold
2,"SRPHTNETSL [MCC, P23508]",below the threshold

# Molecular target: Inadl_1, Q8NI35
# Sequence (Q8NI35 113-229): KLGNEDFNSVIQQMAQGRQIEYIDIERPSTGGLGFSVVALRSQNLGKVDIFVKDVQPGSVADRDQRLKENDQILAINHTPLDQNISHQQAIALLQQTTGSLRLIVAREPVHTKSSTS
# Assay: holdup assay
# Parameters: key: below the threshold = too weak to quantify, mostly under pKd 3.1 to 4
# Details: plain residues with an end cap or a label only (N-terminal biotin on a linker: ado-ado)
row,Binder,pKd
1,"GSQSQVETEA [FKBP4, Q02790]",below the threshold
2,"SRPHTNETSL [MCC, P23508]",below the threshold

# Molecular target: Inadl_10, Q8NI35
# Sequence (Q8NI35 1673-1763): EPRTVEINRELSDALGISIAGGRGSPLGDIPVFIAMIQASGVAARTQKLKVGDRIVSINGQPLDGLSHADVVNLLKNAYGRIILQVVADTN
# Assay: holdup assay
# Parameters: key: below the threshold = too weak to quantify, mostly under pKd 3.1 to 4
# Details: plain residues with an end cap or a label only (N-terminal biotin on a linker: ado-ado)
row,Binder,pKd
1,"GSQSQVETEA [FKBP4, Q02790]",below the threshold
2,"SRPHTNETSL [MCC, P23508]",below the threshold

# Molecular target: Inadl_5, Q8NI35
# Sequence (Q8NI35 673-780): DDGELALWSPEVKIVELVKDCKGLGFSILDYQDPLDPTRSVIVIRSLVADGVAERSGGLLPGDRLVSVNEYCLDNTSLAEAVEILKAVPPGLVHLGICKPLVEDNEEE
# Assay: holdup assay
# Parameters: key: below the threshold = too weak to quantify, mostly under pKd 3.1 to 4
# Details: plain residues with an end cap or a label only (N-terminal biotin on a linker: ado-ado)
row,Binder,pKd
1,"GSQSQVETEA [FKBP4, Q02790]",below the threshold
2,"SRPHTNETSL [MCC, P23508]",below the threshold

# Molecular target: Inadl_9, Q8NI35
# Sequence (Q8NI35 1530-1615): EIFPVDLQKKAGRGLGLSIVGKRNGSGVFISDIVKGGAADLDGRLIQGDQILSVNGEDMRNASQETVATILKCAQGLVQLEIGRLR
# Assay: holdup assay
# Parameters: key: below the threshold = too weak to quantify, mostly under pKd 3.1 to 4
# Details: plain residues with an end cap or a label only (N-terminal biotin on a linker: ado-ado)
row,Binder,pKd
1,"GSQSQVETEA [FKBP4, Q02790]",below the threshold
2,"SRPHTNETSL [MCC, P23508]",below the threshold

# Molecular target: T4, LIN7A, O14910
# Assay: holdup assay
# Parameters: key: below the threshold = too weak to quantify, mostly under pKd 3.1 to 4
# Details: plain residues with an end cap or a label only (N-terminal biotin on a linker: ado-ado)
row,Binder,pKd
1,"GSQSQVETEA [FKBP4, Q02790]",below the threshold
2,"SRPHTNETSL [MCC, P23508]",below the threshold

# Molecular target: T5, LIN7B, Q9HAP6
# Assay: holdup assay
# Parameters: key: below the threshold = too weak to quantify, mostly under pKd 3.1 to 4
# Details: plain residues with an end cap or a label only (N-terminal biotin on a linker: ado-ado)
row,Binder,pKd
1,"GSQSQVETEA [FKBP4, Q02790]",3.62
2,"SRPHTNETSL [MCC, P23508]",3.64

# Molecular target: LNX1_1, Q8TBB1
# Sequence (Q8TBB1 261-371): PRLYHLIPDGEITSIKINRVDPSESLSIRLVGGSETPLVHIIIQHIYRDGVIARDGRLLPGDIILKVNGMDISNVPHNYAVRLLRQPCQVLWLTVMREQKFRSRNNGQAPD
# Assay: holdup assay
# Parameters: key: below the threshold = too weak to quantify, mostly under pKd 3.1 to 4
# Details: plain residues with an end cap or a label only (N-terminal biotin on a linker: ado-ado)
row,Binder,pKd
1,"GSQSQVETEA [FKBP4, Q02790]",below the threshold
2,"SRPHTNETSL [MCC, P23508]",below the threshold

# Molecular target: MAGI2_2, Q86UL8
# Sequence (Q86UL8 410-522): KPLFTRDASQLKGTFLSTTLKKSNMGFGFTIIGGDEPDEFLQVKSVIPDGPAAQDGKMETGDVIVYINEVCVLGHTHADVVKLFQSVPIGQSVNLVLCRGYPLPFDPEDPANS
# Assay: holdup assay
# Parameters: key: below the threshold = too weak to quantify, mostly under pKd 3.1 to 4
# Details: plain residues with an end cap or a label only (N-terminal biotin on a linker: ado-ado)
row,Binder,pKd
1,"GSQSQVETEA [FKBP4, Q02790]",below the threshold
2,"SRPHTNETSL [MCC, P23508]",3.64

# Molecular target: MAGI2_6, Q86UL8
# Sequence (Q86UL8 1141-1229): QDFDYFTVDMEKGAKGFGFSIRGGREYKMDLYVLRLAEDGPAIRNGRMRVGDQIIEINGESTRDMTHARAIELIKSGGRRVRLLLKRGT
# Assay: holdup assay
# Parameters: key: below the threshold = too weak to quantify, mostly under pKd 3.1 to 4
# Details: plain residues with an end cap or a label only (N-terminal biotin on a linker: ado-ado)
row,Binder,pKd
1,"GSQSQVETEA [FKBP4, Q02790]",below the threshold
2,"SRPHTNETSL [MCC, P23508]",3.8

# Molecular target: MAST2, Q6P0Q8
# Sequence (Q6P0Q8 1099-1202): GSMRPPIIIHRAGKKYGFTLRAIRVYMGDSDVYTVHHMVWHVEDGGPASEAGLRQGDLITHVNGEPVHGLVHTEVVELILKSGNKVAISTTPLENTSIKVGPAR
# Assay: holdup assay
# Parameters: key: below the threshold = too weak to quantify, mostly under pKd 3.1 to 4
# Details: plain residues with an end cap or a label only (N-terminal biotin on a linker: ado-ado)
row,Binder,pKd
1,"GSQSQVETEA [FKBP4, Q02790]",below the threshold
2,"SRPHTNETSL [MCC, P23508]",5.66

# Molecular target: T6, MPDZ_12, O75970
# Assay: holdup assay
# Parameters: key: below the threshold = too weak to quantify, mostly under pKd 3.1 to 4
# Details: plain residues with an end cap or a label only (N-terminal biotin on a linker: ado-ado)
row,Binder,pKd
1,"GSQSQVETEA [FKBP4, Q02790]",3.52
2,"SRPHTNETSL [MCC, P23508]",below the threshold

# Molecular target: NHERF2_2, Q15599
# Sequence (Q15599 142-238): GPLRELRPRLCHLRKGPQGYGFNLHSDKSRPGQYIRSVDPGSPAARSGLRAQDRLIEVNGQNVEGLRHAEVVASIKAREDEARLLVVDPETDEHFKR
# Assay: holdup assay
# Parameters: key: below the threshold = too weak to quantify, mostly under pKd 3.1 to 4
# Details: plain residues with an end cap or a label only (N-terminal biotin on a linker: ado-ado)
row,Binder,pKd
1,"GSQSQVETEA [FKBP4, Q02790]",below the threshold
2,"SRPHTNETSL [MCC, P23508]",4.49

# Molecular target: NHERF4_4, Q86UT5
# Sequence (Q86UT5 464-550): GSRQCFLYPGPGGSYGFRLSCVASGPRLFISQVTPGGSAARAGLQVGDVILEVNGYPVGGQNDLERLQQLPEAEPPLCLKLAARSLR
# Assay: holdup assay
# Parameters: key: below the threshold = too weak to quantify, mostly under pKd 3.1 to 4
# Details: plain residues with an end cap or a label only (N-terminal biotin on a linker: ado-ado)
row,Binder,pKd
1,"GSQSQVETEA [FKBP4, Q02790]",below the threshold
2,"SRPHTNETSL [MCC, P23508]",below the threshold

# Molecular target: T7, PCLO, Q9Y6V0
# Assay: holdup assay
# Parameters: key: below the threshold = too weak to quantify, mostly under pKd 3.1 to 4
# Details: plain residues with an end cap or a label only (N-terminal biotin on a linker: ado-ado)
row,Binder,pKd
1,"GSQSQVETEA [FKBP4, Q02790]",below the threshold
2,"SRPHTNETSL [MCC, P23508]",below the threshold

# Molecular target: T8, PTPN13_1, Q12923
# Assay: holdup assay
# Parameters: key: below the threshold = too weak to quantify, mostly under pKd 3.1 to 4
# Details: plain residues with an end cap or a label only (N-terminal biotin on a linker: ado-ado)
row,Binder,pKd
1,"GSQSQVETEA [FKBP4, Q02790]",below the threshold
2,"SRPHTNETSL [MCC, P23508]",below the threshold

# Molecular target: T9, SHANK1, Q9Y566
# Assay: holdup assay
# Parameters: key: below the threshold = too weak to quantify, mostly under pKd 3.1 to 4
# Details: plain residues with an end cap or a label only (N-terminal biotin on a linker: ado-ado)
row,Binder,pKd
1,"GSQSQVETEA [FKBP4, Q02790]",3.64
2,"SRPHTNETSL [MCC, P23508]",4.17

# Molecular target: T10, TX1BP3, O14907
# Assay: holdup assay
# Parameters: key: below the threshold = too weak to quantify, mostly under pKd 3.1 to 4
# Details: plain residues with an end cap or a label only (N-terminal biotin on a linker: ado-ado)
row,Binder,pKd
1,"GSQSQVETEA [FKBP4, Q02790]",below the threshold
2,"SRPHTNETSL [MCC, P23508]",4.12
